Reference: article PMC12167799, “The role of human Shu complex in ATP-dependent regulation of RAD51 filaments during homologous recombination–associated DNA damage response” (The Journal of Biological Chemistry, 2025)

Substrate: Nc1ncnc2c1ncn2[C@@H]1O[C@H](COP(=O)(O)OP(=O)(O)OP(=O)(O)O)[C@@H](O)[C@H]1O
Assay: malachite green ATPase assay, Michaelis-Menten fit
Format: biochemical, Homo sapiens
Settings: 1 μM protein, no DNA (basal activity), 37 °C
From the text: malachite green ATPase assay, Michaelis-Menten fit on hSWS1-SWSAP1 (human Shu complex)

B1: hSWS1-SWSAP1 (human Shu complex) (Homo sapiens) (protein)
chain: MPAAGPPLLLLGTPGSGKTALLFAAALEAAGEGQGPVLFLTRRPLQSMPRGTGTTLDPMRLQKIRFQYPPSTRELFRLLCSAHEAPGPAPSLLLLDGLEEYLAEDPEPQEAAYLIALLLDTAAHFSHRLGPGRDCGLMVALQTQEEAGSGDVLHLALLQRYFPAQCWLQPDAPGPGEHGLRACLEPGGLGPRTEWWVTFRSDGEMMIAPWPTQAGDPSSGKGSSSGGQP
notes: heterodimer co-expressed in High Five insect cells (baculovirus); SWSAP1 with TEV-cleavable N-terminal 6xHis tag (cleaved), SWS1 untagged; with Zinc finger SWIM domain-containing protein 7
Km: 10.0 ± 0.2 mM | Vmax: 0.75 µM/min | kcat: 0.0125 s⁻¹ | kcat/Km: 1.3 M⁻¹ s⁻¹
